Test results from patent publication US20250326835A1, “USE OF ANTI-CLAUDIN-1 ANTIBODIES TO TREAT CHOLANGIOCARCINOMA” (Alentis Therapeutics AG, priority 2022, published 2025).

Molecular target: T1, human Claudin-1 (CLDN1) on EGI-1 cholangiocarcinoma cells (human, UniProt O95832 1-211)
T1 construct: whole, on cells; Endogenously expressed on human CCA cell lines; also called non-junctional CLDN1
T1 sequence (looked up): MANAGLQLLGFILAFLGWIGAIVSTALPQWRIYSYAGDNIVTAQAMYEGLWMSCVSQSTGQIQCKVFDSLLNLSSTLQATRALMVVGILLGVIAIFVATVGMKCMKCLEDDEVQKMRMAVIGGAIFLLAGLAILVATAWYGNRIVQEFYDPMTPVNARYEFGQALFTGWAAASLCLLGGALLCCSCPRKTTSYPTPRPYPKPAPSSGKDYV
Assay: flow cytometry on EGI-1 cells, 10 µg/ml antibody, Alexa647 secondary, delta-MFI against isotype control
Procedure: A first-line chemotherapy treatment for advanced CCA is cisplatin plus gemcitabine (Borbath et al., 48(7) Eur J Cancer 990-996 (May 2012)). To investigate the expression of CLDN1 upon treatment with cisplatin and gemcitabine, 1.5×10⁵ CCA EGI-1 cells were treated with cisplatin (100 nM) and gemcitabine (10 nM) for 24 hours. Cells were then collected, and CLDN1 expression was assessed by flow cytometry and Western Blot using CLDN1 specific Abs.
For flow cytometry, cells were incubated with the anti-CLDN1 mAb H3L3 or the isotype control mAb at a concentration of 10 μg/ml in triplicates per condition. Following incubation with the primary antibody for 1 hour, cells were washed and incubated with human Alexa647-conjugated secondary antibody at 4° C. for 45 minutes. Cells were subsequently washed and fixed with 2% paraformaldehyde (PFA). Data were acquired using Cytoflex B2R2V0 (Beckman Coulter) and analyzed using CytExpert 2.1 and FlowJo v10 (Beckman Coulter). CLDN1 expression was calculated as the difference of the mean fluorescence intensities of cells stained with anti-CLDN1 mAb H3L3 and isotype control mAb. The experiment was independently repeated three times.

B1: anti-CLDN1 mAb H3L3 (antibody, human IgG1, kappa, V domains shown)
VH: QVQLVESGGGVVQPGRSLRLSCLGSGFSFSSYGMNWVRQAPGKGLEWVASISPSGSYFYYADSVKGRFTISRDNSKNTLYLQMTSLRAEDTAIYYCARLPGFNPPFDHWGQGTLVTVSS
VL: DIQMTQSPSSLSASVGDRVTITCKASQNVGGNVDWYQWKPGKAPKLLIYGASNRYTGVPDRFRGSGSGTDFTLTISSLQPEDVATYYCLQYKNNPWTFGGGTKVEIKR
notes: also called CLDN1-specific mAb H3L3; anti-CLDN1 H3L3 antibody
Q: Does B1 bind?
A: binds
